Values quoted from earlier work as cited in publication PMC8136485, “Were Ancestral Proteins Less Specific?” (Molecular Biology and Evolution, 2021).

Molecular target: NCX1 peptide (Homo sapiens) (UniProt P32418)
Conditions: cited from earlier work

Sequence of NCX1 peptide (Homo sapiens) (P32418 36-973): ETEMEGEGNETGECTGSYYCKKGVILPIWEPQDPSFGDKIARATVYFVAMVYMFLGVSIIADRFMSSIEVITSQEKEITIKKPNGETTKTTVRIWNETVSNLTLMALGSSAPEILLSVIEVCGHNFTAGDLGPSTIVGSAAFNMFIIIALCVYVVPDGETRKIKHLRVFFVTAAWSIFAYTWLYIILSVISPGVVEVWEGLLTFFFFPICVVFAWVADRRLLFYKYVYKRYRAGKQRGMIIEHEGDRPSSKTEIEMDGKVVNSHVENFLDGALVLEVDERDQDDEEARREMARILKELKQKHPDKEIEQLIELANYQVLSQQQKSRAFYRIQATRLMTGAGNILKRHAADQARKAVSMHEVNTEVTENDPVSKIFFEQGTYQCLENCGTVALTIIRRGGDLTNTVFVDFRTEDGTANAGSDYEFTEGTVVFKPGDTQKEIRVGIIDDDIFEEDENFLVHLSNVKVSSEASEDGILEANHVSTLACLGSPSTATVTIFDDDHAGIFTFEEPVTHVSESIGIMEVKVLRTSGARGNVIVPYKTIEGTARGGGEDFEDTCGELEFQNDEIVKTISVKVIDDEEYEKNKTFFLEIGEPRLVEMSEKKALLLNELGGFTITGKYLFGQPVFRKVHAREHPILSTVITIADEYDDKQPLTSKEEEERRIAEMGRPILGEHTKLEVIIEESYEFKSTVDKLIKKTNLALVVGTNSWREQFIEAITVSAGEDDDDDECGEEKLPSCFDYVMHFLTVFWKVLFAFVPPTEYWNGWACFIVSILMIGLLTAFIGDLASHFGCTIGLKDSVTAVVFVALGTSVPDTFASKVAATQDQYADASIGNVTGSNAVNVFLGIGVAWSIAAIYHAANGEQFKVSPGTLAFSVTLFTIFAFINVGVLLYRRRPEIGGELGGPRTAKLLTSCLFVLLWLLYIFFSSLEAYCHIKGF
Sequence of hA5 (S100A5) (P33763 whole entry): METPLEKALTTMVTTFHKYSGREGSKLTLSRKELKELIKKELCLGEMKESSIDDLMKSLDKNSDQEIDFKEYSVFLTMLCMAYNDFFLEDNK

hA5 (S100A5) (from UniProt P33763)
Kd: 18 µM
